Two sequences from paper PMC10204968 can be followed below.

In the data set the target is Hfq (His6-Hfq) (Histophilus somni strain 2336) (UniProt B0UTF5). Put plainly: EMSA. As to conditions: 10 mM Tris-HCl pH 7.4, 6% glycerol, 50 ug/ml BSA, 0.75 ug baker's yeast tRNA, 200 ng sRNA, 15 ul, room temperature 30 min; 6% native PAGE, 0.5x TBE, GelGreen ….
Sequence of Hfq (His6-Hfq) (Histophilus somni strain 2336) (B0UTF5 whole entry): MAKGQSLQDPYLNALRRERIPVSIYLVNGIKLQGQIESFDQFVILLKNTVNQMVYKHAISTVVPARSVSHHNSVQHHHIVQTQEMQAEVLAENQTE

In the case of “GGGAAUAAUACUGAAUAAUAGCUAUAUUACGACAAAGGGCGUAAGCUGCCACAAGUGCUACUUAAUCGGGCGUAAGCUGCCAUAAGUGCUACUUAAUUAGGUGCAAGCUACCGUAAGUGCUGAAGAAAAGAUGCCUAACGGCAUCUUUUUUUUGCU [HS9 sRNA]”, the binding result is “binds”.

Take “GGGCGCUGGCAGGCUAAUGACUAAUAAGAUGAUAACUAGGAUAAUGUAUUUAAACAUUGUGUUAUCCUCUUCAAAGUUGGGUGGAUUGAAGGUCGCACCCAGCUCGUUUCCGCAGUAUUGCGAAAACAAGAAUAUUAUAGGUCGUUUUAUAUUUCUGGUCAAGGAAUAAAACGACCUAUUUUUUAUUUGAC [HS97 sRNA]”: the binding result is “binds”.
